# Experimental data from the DeepSol protein solubility set.
# Assay: soluble on expression in E. coli; label from the status in PepcDB or PDB records
row,Sequence,soluble on expression in E. coli
1,KYVDGFLIPIAKDKVNKYREIAQKSSQIWKDLGALEYYECIGDDLDIEELVSFKKVVNASEEETVIFSWIVYESKEQRDKVNEAVMNDPRMKEMMETSEYDLFDYRRMSYGGFKTLVSL,not soluble
2,MGSDKIHHHHHHMKVNLPAFERAGVMVVGDVMLDRYWYGPTCRISPEAPVPVVKVNTVEERPGGAANVAMNIASLGANARLVGLTGIDDAARALSKTLAEVNVKCDFVSVPTHPTITKLRVLSRNQQLIRLDFEEGFEGVDPQPLHERINQALGSIGALVLSDYAKGALTSVQTMISLARQAGVPVLIDPKGTDFERYRGATLLTPNLSEFEAVAGKCKSEDELVERGMKLIADYDLSALLVTRSEQGMTLLQPNKAPLHMPTQAQEVYDVTGAGDTVIGVLAATLAAGNTLEEACYFANAAAGVVVGKLGTSTVSPIELENAVRGRADTGFGVMTEEELRQAVASARKRGEKVVMTNGVFDILHAGHVSYLANARKLGDRLIVAVNSDASTKRLKGESRPVNPLEQRMIVLGALESVDWVVSFEEDTPQRLIAGILPDLLVKGGDYKPEEIAGSEEVWANGGEVMVLNFEDGCSTTNIIKKIQTESEK,not soluble
3,MSLGAQTLEYWVYSDFAQGEALALQQDFIKEFQESHPGVTVNIVGKGDDDLTAGQIAGAASGNLPDVFMNAVGVGAQLVDVGALANIHDKWMAMPEEFRAQFNKGAVENCAPRPEEMYCIPYTGYGTLLFRNLTVLEEAGIDTSAPPADWADWLAQMEKVKAAGKFAIPDQALVFNSIAEMYGVTGDVSTWGIDWESKTTRIDPAVMTSVLEKFVAMQPLTSGTSRNDQATKDLFVTNQLAFHTIGPWVNPTYVEAVENSGLKYDFVLMPGETADKHGGIKNFEIVGVAPGENLDLAFEFATYITAKEQMARWAKLLSRYNSNDAAMAEADVAALPLVARSVAAVEVTMDVSPPYLIQPVPACYQSTVVDYVSATADGEFTPEEGAAEMIAELNDCLAGEGHHHHHH,soluble
4,STSLPQISTLMREKSVENKLKVKAKDDHMVPSGLYEVRAIQLPGGSWRHYYVDHSSKETYWILPYSHPDGASSHPLEKLPVYLPSYEECVDETNPLAVPEVCSPARD,soluble
5,MLLEAIFHEAKGSYAYPISETQLRVRLRAKKGDVVRCEVLYADRYASPEEELAHALAGKAGSDERFDYFEALLECSTKRVKYVFLLTGPQGEAVYFGETGFSAERSKAGVFQYAYIHRSEVFTTPEWAKEAVIYQIFPERFANGDPSNDPPGTEQWAKDARPRHDSFYGGDLKGVIDRLPYLEELGVTALYFTPIFASPSHHKYDTADYLAIDPQFGDLPTFRRLVDEAHRRGIKIILDAVFNHAGDQFFAFRDVLQKGEQSRYKDWFFIEDFPVSKTSRTNYETFAVQVPAMPKLRTENPEVKEYLFDVARFWMEQGIDGWRLDVANEVDHAFWREFRRLVKSLNPDALIVGAIWHDASGWLMGDQFDSVMNYLFRESVIRFFATGEIHAERFDAELTRARMLYPEQAAQGLWNLLDSHDTERFLTSCGGNEAKFRLAVLFQMTYLGTPLIYYGDEIGMAGATDPDCRRPMIWEEKEQNRGLFEFYKELIRLRHRLASLTRGNVRSWHADKQANLYAFVRTVQDQHVGVVLNNRGEKQTVLLQVPESGGKTWLDCLTGEEVHGKQGQLKLTLRPYQGMILWNGR,soluble
6,MARTEKKKDVVIVGLGWTGAIAGMELAAEGLEIVALERGRDQNTVPEFKYPNQIDELTYGVRLVNMQHPSQQTVTVRRNDAETALPYRSMGSFLPANGVGGAGTHWNGLLWRPQPQEIQLRSYVKERWGESIIPEGMNLMDYPVTYDELEPFFTRFDEVAGISGKAGNLKGKIQPGGNPFEGWRSSEYPMPPMPPTYDATKFRDAAQAMGYHPFPAPAGVASTAYVNPYGMQMAPCNFCGFCERFGCYQYSKSSPQTAILDALKRKPNFSYRTHAEVLRIESSADGKTATGVTYFDAAAQEEVFQPADLVILAAYQLNNVHLLLLSGIGEPYDPATNTGVTGKNYAYQMNGGVTMFFKDANFNPFIGHGSNGFCIDDFSVNQNDFGALGFIGGAYWRSGTFNGQPIRSMILPAGTPGWGAGWKKAIGQWYGHSMSIGTHGSHMAYRANHLDLDPTYKDPHGRPLMRMTFNWQDNDLRMNQYMKLKAGEVGKAMKPDLMQLGFKGPGAMYDVRPYQTTHNTGGHIMSRDPREGVVNRYCQAWDKHNVFVMGAGNFVQNTQYNPTGMVGALAYWTIHAIRTQYLRDPRPLVLEHHHHHH,not soluble
7,STSGPGGPAAAAGGRKENHQWYVCNREKLCESLQAVFVQSYLDQGTQIFLNNSIEKSGWLFIQLYHSFVSSVFSLFMSRTSINGLLGRGSMFVFSPDQFQRLLKINPDWKTHRLLDLGAGDGEVTKIMSPHFEEIYATELSETMIWQLQKKKYRVLGINEWQNTGFQYDVISCLNLLDRCDQPLTLLKDIRSVLEPTRGRVILALVLPFHPYVENVGGKWEKPSEILEIKGQNWEEQVNSLPEVFRKAGFVIEAFTRLPYLCEGDMYNDYYVLDDAVFVLKPV,soluble
8,AHHHHHHGSTWREILRKEGFLDLGEFIVELVYIDCPCEPIPPTLAIYDKKGDEWYKVEEAPNVQNYREAVEWAIEVLERIRDGENVKLVSLDGPAPPKVMKRLSLALQKLTE,not soluble
9,MIQVENLTKTINNQMILEDISIDIEKGKLTSLIGPNGAGKSTLLSAICRLIRFENGEVKIDGQLMSDYKNNDLSKKISILKQTNHTEMNITVEQLVNFGRFPYSKGRLTKEDHDIVNDALDLLQLQDIRNRNIKSLSGGQRQRAYIAMTIAQDTEYILLDEPLNNLDMKHAVQIMQTLKMLAHKMNKAIVIVLHDINFASCYSDQIVALKNGQLVKSDLKDNVIQSSVLSDLYDMNIQIEHIRNQRICLYFKD,not soluble
10,MKSIYIILVNYNNFQDTIECVKSLRKIKNYHNYKVIIVDNDSKNDSVSKIKSFLQDCLLIESKKNLGFAGGNNLGIKYAMKHNADYVLLLNNDTVVENDFLDKLLEVHENYGNVGIVGGKIYYYYDKNRIWYAGGKINKFTGKTKHIGVNEIDEGQYNNISITGYVTGCMMLISKGAIEKCGVMDEKYFLYYEETDWNVRIKNAGFKIMYTPLSKIYHKVSSTTGKSDLIMSYYYDRNRYYFVFKNFNWVCKLSVTLYILVRLYAKLFKAIAINDVKRKHLIEYTIISIKNNIMGEIRV,not soluble
11,RIIEINPEEGWVRVEAGVIKDQLNQFLKPYGYFFAPELSTSNRATLGGMINTDASGQGSLVYGKTSDHVLGLRAVLMGGDILDTQAVPVALAETLGNTPSTVGRIYNTVYQRCKAQRDLIIDKFPKLNRFLTGYDLRHVFNDEMSEFDLTRILTGSEGTLAFITEARLDITRLP,not soluble
12,MGSDKIHHHHHHMSSIFEKYSVRRVINASGKMTILGVSTVDKEVIEAIGEGCKNFFIIEELINKTGEYIANLLGCESALIVSSASAGIAQSVGAMIAKDDMSLVYNVNNPKKQVKREIIIPKGHNVDYGVPVEVMIRLGGGEVVEAGYANMCNKEHIIREINENTAAIMYIKSHHCVQKSMLSVLDAVQVAKEYNLPLIVDAAAEEDLNVYYELGADLVIYSGAKAIEGPSSGLVIGKKKYIDNVKLQSKGIGRAMKIGKENIVGLTCAIERYISNDKVTLKEMEDKLNPFIDKINTIKGVSASITRDSAGREILRGEIDFNEDIINKSTQQIINELRSGEIAIYTRDYKANEGKIEIDIRSVTGSDLDTIYNRIKNIVES,not soluble
13,RVSLLKRKYKRVTTIAERTRRAQSETDRRNYTAASKARTQAQRSSKPQRTRASSRSRRDNSVTVEELMRRRQEQQQTGAKSFAPRPTRTAAQREAAERDLTRRLVNPDPEIHRTRTFDDDLYS,not soluble
14,GPGSMTDRLTAEDVFYELSTIRDPERPDCTLADLDVVAMNRCRVEYIESSADFQSLRGQGCNDSGKPSVVVKVILQPTVPHCSLMEFICLCVYVRLREVFSLSNNAKFDITLVDGSHVRQRELEKQVADKERLAAAMEDKALLQEVERHINCE,soluble
15,MLLLTPGPTPIPERVQKALLRPMRGHLDPEVLRVNRAIQERLAALFDPGEGALVAALAGSGSLGMEAGLANLDRGPVLVLVNGAFSQRVAEMAALHGLDPEVLDFPPGEPVDPEAVARALKRRRYRMVALVHGETSTGVLNPAEAIGALAKEAGALFFLDAVTTLGMLPFSMRAMGVDYAFTGSQKCLSAPPGLAPIAASLEARKAFTGKRGWYLDLARVAEHWERGGYHHTTPVLLHYALLEALDLVLEEGVAARERRAREVYAWVLEELKARGFRPYPKASPLPTVLVVRPPEGVDADRLVRALYAEGVAVAGGIGPTRGQVLRLGLMGEGARREAYQAFLKALDRALALA,soluble
16,KQLEKDLLASAETLQRERHQIANALESEIKTELCDLYMDKADFKVVFTKGKFNRDGNEQVEFYISTNPGEGFKPLVKVASGGELSRLMLAIKSAFARKEDKTSIVFDEVDTGVSGRVAQAIAQKIHKIGSYGQVLAISHLPQVIAIADYQFFISKESDNETTVSRVRLLTPEERVEEIAKMLAGDNLTDAALSQARALLKVDEPV,not soluble
17,SLRAERLTSRVKALFSVLNYERARRPGLLGASVLGLDDIHRAWRTFVLRVRAQDPPPELYFVKVDVTGAYDTIPQDRLTEVIASIIKPQNTYCVRRYAVVQKAAHGHVRKAFKSHVSTLTDLQPYMRQFVAHLQETSPLRDAVVIEQSSSLNEASSGLFDVFLRFMCHHAVRIRGKSYVQCQGIPQGSILSTLLCSLCYGDMENKLFAGIRRDGLLLRLVDDFLLVTPHLTHAKTFLRTLVRGVPEYGCVVNLRKTVVNFPVEDEALGGTAFVQMPAHGLFPWCGLLLDTRTLEVQSDYSSYARTSIRASLTFNRGFKAGRNMRRKLFGVLRLKCHSLFLDLQVNSLQTVCTNIYKILLLQAYRFHACVLQLPFHQQVWKNPTFFLRVISDTASLCYSILKAKNAGMSLGAKGAAGPLPSEAVQWLCHQAFLLKLTRHRVTYVPLLGSLRTAQTQLSRKLPGTTLTALEAAANPALPSDFKTILDEG,not soluble
18,MCSDVVAGDLNDLRIAALNLGKMSELYTNGAFVLGIAQGADTETYGRPHEWWSYVEQQLATALRFTYDRLNDGQEALLAAIDAYAYVDGDNAKGLTDVGKEYKEYISNPNNVGDEKYYDPPPLHTMVDAPDLGDKPEGWEEKYDG,not soluble
19,SGRVQLFEISLSHGRVVYSPGEPLAGTVRVRLGAPLPFRAIRVTCIGSCGVSNKANDTAWVVEEGYFNSSLSLADKGSLPAGEHSFPFQFLLPATAPTSFEGPFGKIVHQVRAAIHTPRFSKDHKCSLVFYILSPLNLNSIPDIEQPNVASATKKFSYKLVKTGSVVLTASTDLRGYVVGQALQLHADVENQSGKDTSPVVASLLQKVSYKAKRWIHDVRTIAEVEGAGVKAWRRAQWHEQILVPALPQSALPGCSLIHIDYYLQVSLKAPEATVTLPVFIGNIAVNHAPVSPRPGLGLPPGAPPLVVPSAPPQEEAEAEAAAGGPHFLDPVFLSTKSHSQRQPLLATLSSVPGAPEPCPQDGSPASHPLHPPLCISTGATVPYFAEGSGGPVPTTSTLILPPEYSSWGYPYEAPPSYEQSCGGVEPSLTPES,soluble
20,VRLSRFDLAFDIFNRPEIVNLQHIKGGVTHKVFYGRGGELETKYWGSSGSNVQVRLYDKNKEIIAHKREEKLDLGVNPFWWRLEFQLRTKAIGEDMVQDIMNRLDNFGFYKLEHIRVDQRAFTIIFLSNPELLSLAFPNLKSDSIKKKKTRVRKLLREETNQFAEELKEVLIQNLPKLNTELQLLVGEFLTLEN,not soluble
